Reference: patent publication US12258396 (MEDICOVESTOR, dated 2025)

What was measured:
[1] = biological target: T1, fusion protein containing the extracellular domain of cynomolgus FRalpha and a polyhistidine tag (cynomolgus, UniProt A0A2K5U044 25-233); experiment: ELISA, plate coated with cynomolgus FRalpha ECD-His, anti-human-IgG-Fc-HRP detection
T1 construct: extracellular domain; Coated on ELISA plates; also called cynomolgus FRalpha extracellular domain; not shown: polyhistidine tag

[2] = biological target: T2, human FRalpha expressed on cells (transfected HEK293 cells; SKOV3 human ovarian cancer cells) (human, UniProt P15328 25-234); experiment: flow cytometry on HEK293 cells transfected to express FRalpha, PE anti-human IgG Fcgamma detection
T2 construct: whole, on cells; also called human folate receptor alpha
T2 sequence (P15328 25-234): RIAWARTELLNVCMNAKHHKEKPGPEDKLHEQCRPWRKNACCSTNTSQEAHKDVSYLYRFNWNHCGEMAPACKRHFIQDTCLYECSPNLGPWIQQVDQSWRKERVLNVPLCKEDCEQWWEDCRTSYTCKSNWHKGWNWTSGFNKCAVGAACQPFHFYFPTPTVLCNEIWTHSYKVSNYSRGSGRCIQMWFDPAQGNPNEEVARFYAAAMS
Experimental: (§1) The affinity of each antibody was then assessed by flow cytometry. Briefly, HEK293 cells transfected to express FRalpha were washed with fluorescence-activated cell sorting (FACS) buffer, to which the IgGs were added at varying concentrations and incubated at 4 degrees Celsius for 60 minutes. The cells were then centrifuged and washed twice in FACS buffer. A phycoerythrin-labelled anti-human IgG, Fcgamma antibody (109-115-098; Jackson ImmunoResearch, Pennsylvania, United States) was then added to the cells at a 1:200 dilution and incubated at 4 degrees Celsius for 30 minutes. The cells were then washed, resuspended in FACS buffer, and counted by flow cytometry. Results are depicted in FIG. 4.

[3] = biological target: T2, human FRalpha expressed on cells …; experiment: flow cytometry on SKOV3 human ovarian cancer cells that express FRalpha
Experimental: as §1
The flow cytometry experiment of the preceding paragraph was repeated with a human ovarian cancer cell line that expresses FRalpha, SKOV3. Results are depicted in FIGS. 5A and 5B. […] The antibody according to SEQ ID NO: 3-12 was then designated the lead antibody for further development.

[4] = biological target: T3, fusion protein containing the extracellular domain of human FRalpha and a polyhistidine tag (human, UniProt P15328 25-233); experiment: ELISA, plate coated with human FRalpha ECD-His, anti-human-IgG-Fc-HRP detection
T3 construct: extracellular domain; Coated on ELISA plates; also called human FRalpha extracellular domain; not shown: polyhistidine tag
T3 sequence (P15328 25-233 limits assumed): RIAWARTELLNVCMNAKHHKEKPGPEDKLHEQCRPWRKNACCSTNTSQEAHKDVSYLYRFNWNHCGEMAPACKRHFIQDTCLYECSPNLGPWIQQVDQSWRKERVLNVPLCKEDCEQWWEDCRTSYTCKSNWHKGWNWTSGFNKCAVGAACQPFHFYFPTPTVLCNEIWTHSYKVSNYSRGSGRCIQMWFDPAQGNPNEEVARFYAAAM
Experimental: The affinity of each IgG1 for FRalpha was confirmed by ELISA. Briefly, a fusion protein containing the extracellular domain of human FRalpha and a polyhistidine tag was used to coat ELISA plates, which were washed three times with phosphate-buffered saline (PBS) containing 0.1 percent polysorbate 20 (PBST), then blocked with PBS containing 5 percent powdered milk (PBSM), and then washed three more times with PBST. Wells were then incubated with antibodies at varying concentrations for 60 minutes at room temperature in 1 percent PBSM. Wells were then washed three times with PBST, after which the secondary, horse-radish-peroxidase-conjugated antibody anti-human-IgG-Fc-HRP (ab97225, Abcam, United Kingdom) was added at a 1:8000 dilution in 1 percent PBSM for 50 minutes at room temperature. The wells were then washed six times with PBST, after which 3,3',5,5"-tetramethylbenzidine (TMB) was added. The reaction was stopped with 2 molar sulfuric acid, and the TMB diamine product was quantified at 450 nanometers in a plate reader. Results are depicted in FIG. 2.

T1 sequence (A0A2K5U044 entry or part of it): as the sequence (P15328 25-233 limits assumed) above, with I2T, W4R, R37K, A146P, H171Y counted along it

| EC50 [1] | EC50 [2] | EC50 [3] | EC50 [4] | Binder |
| --- | --- | --- | --- | --- |
| ~0.06 nM | ~5 nM | < 1 nM | ~0.05 nM | lead fully-human anti-FRalpha IgG1 antibody (antibody according to SEQ ID NO: 3-12) (antibody, V domains shown, Fully human IgG1/kappa; also called lead antibody; lead anti-FRalpha antibody) VH: EVQLLESGGGLVKPGGSLRLSCAASGFTFSSYTMNWVRQAPGKGLEWVSSISSGGGYIYYADSVKDRFTISRDNAKNSLYLQMNSLRAEDTAVYYCAKGDTIMIISAWGQGTTVTVSS VL: DIQLTQSPSTLSASVGDRVTITCRASQSISSWLAWHQQKPGKAPKLLIYAASSLQNGVPSRFSGSGFGTDFTLTISSLQPEDFATYYCQQASSFPLTFGGGTKVEIKR |
| ~0.16 nM | ~4 nM | – | ~0.12 nM | Mirvetuximab (antibody, V domains shown) VH: QVQLVQSGAEVVKPGASVKISCKASGYTFTGYFMNWVKQSPGQSLEWIGRIHPYDGDTFYNQKFQGKATLTVDKSSNTAHMELLSLTSEDFAVYYCTRYDGSRAMDYWGQGTTVTVSS VL: DIVLTQSPLSLAVSLGQPAIISCKASQSVSFAGTSLMHWYHQKPGQQPRLLIYRASNLEAGVPDRFSGSGSKTDFTLTISPVEAEDAATYYCQQSREYPYTFGGGTKLEIK |
